Source: PMC4950008

Each sequence was assayed against T1, His-GlnR (UniProt O53830) (assay: EMSA).
T1 sequence: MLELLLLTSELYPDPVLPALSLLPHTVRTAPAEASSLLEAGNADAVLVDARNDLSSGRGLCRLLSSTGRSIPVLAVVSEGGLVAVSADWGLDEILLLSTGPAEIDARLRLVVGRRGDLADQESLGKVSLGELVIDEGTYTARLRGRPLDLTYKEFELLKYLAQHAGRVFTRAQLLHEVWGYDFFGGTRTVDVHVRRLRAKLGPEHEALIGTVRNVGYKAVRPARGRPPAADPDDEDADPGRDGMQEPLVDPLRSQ

Sequence	binding
CACAGACTCCATCTGTTGGGGGTTCAACGGGGATTCAACCGGACACTTAGCGCCACTATTGAATATGAATATCATTTGAACGAGAGGTTAACACAGCGTGACGACGGCCCAGGGCGGTGAGTTTGGTCACACGAGCGCTGGGCTCACCACCCCATGCTGGTGGGATTTAGC (double strand) [peak 13, Rv1386 (PE15) promoter region]	binds
GTACGTCCACAATCGAAGGACGCGGAAGCACGGGGCCGCGACCACCGAGACCCGTGGCGGCCCATGGCCGCAAGGAGGCTCCTCGCGAGATTCGTCACGCGTTACCTGGATTTAACCTGCGCCCGTCCGAAGCGCCCGGCTTTTTCGTAGGCTTCGCTGCGGTTGGGGCCAGACAGCGCCGTGAAGCCCGGTGGGTGTGGCCGGCTGACGGGATGGT (double strand) [peak 18, Rv1548c (PPE22)/Rv1549 (fadD11) promoter region]	binds
ACTCCCTGCGGCAAGGTGTAGGCCAGCTCGCGCAACTTAACCGCGCACTCGTAGAGCGTCTGGCGGAAATGCGTTTCGGTCATCGGGGTGCCTTCGCTCGTCGGCGAGATCGGCAGCGGTGTCTTGTGCTCATACAGATCAATCTCATTCATCAGAGCCATCATTCGCCGGCTAGCAGCTGCAAATCATCAGCACATCCACGTATGTC (double strand) [Rv1360 upstream region (negative control)]	no binding
CATGAGCTGATGAATGGAGTCCACTACCGGCCGGTGCGGCGACCAAGGATCTGTTTGCGACGGGATCTGTGCGACGTTGGCGGCAATCAGCTTGTTACAGCTGATAATCCGAGCGTGATCGCGACCTAACCGGCAGGCAACGCCGGCATGGTCCCCTGGCACGATGGGACTACTGTCACGCTTGCGCAAACGTGAGCCGATCAGCATCTACGACAAGATC (double strand) [peak 17, Rv1542c (glbN) promoter region]	binds
